{
  "source": "paper PMC8983717",
  "about": "“Cryo-EM structures of a LptDE transporter in complex with Pro-macrobodies offer insight into lipopolysaccharide translocation” (Nature Communications, 2022)",
  "binders": {"B1": {"name": "sybody 51 (Sb51), synthetic nanobody against NgLptDE (VHH)", "VHH": "QVQLVESGGGSVQAGGSLRLSCAASGSISSITYLGWFRQAPGKEREGVAALATYYGHTYYADSVKGRFTVSLDNAKNTVYLQMNSLKPEDTALYYCAAAYSGIWTPLGVWATYEYWGQGTQVTV", "notes": "as the sybody moiety of m6 (PMb51), PDB 7OMM, up to the conserved C-terminus VTV"}, "B2": {"name": "Neisseria gonorrhoeae LptDE complex (NgLptDE), wild-type full-length LptD and LptE with a C-terminal hexa-histidine tag (complex, N. gonorrhoeae)", "chain 1": "ADTVAAEEADGRVAEGGAQGASESAQASDLTLGSTCLFCSNESGSPERTEAAVQGSGEASVPEDYTRIVADRMEGQSKVKVRAEGSVIIERDGAVLNTDWADYDQSGDTVTVGDRFALQQDGTLIRGETLTYNLDQQTGEAHNVRMETEQGGRRLQSVSRTAEMLGEGRYKLTETQFNTCSAGDAGWYVKAASVEADRGKGIGVAKHAAFVFGGVPLFYTPWADFPLDGNRKSGLLVPSVSAGSDGVSLSVPYYFNLAPNFDATFAPGIIGERGATFDGQIRYLRPDYSGQTDLTWLPHDKKSGRNNRYQAKWQHRHDISDTLQAGVDFNQVSDSGYYRDFYGGEEIAGNVNLNRRVWLDYGGRAAGGSLNAGLSVQKYQTLANQSGYKDEPYAIMPRLSADWHKNAGRAQIGVSAQFTRFSHDGRQDGSRLVVYPGIKWDFSNSWGYVRPKLGLHATYYSLDSFGGKASRSVGRVLPVVNIDGGTTFERNTRLFGGGVVQTIEPRLFYNYIPAKSQNDLPNFDSSESSFGYGQLFRENLYYGNDRINAANSLSTAVQSRILDGATGEERFRAGIGQKFYFKDDAVMLDGSVGKNPRSRSDWVAFASGGIGGRFTLDSSIHYNQNDKRAEHYAVGAGYRPAPGKVLNARYKYGRNEKIYLQADGSYFYDKLSQLDLSAQWPLTRNLSAVVRYNYGFEAKKPIEMLAGAEYKSSCGCWGAGVYAQRYVTGENTYKNAVFFSLQLKDLSSVGRNPAGRMDVAVPGYIPAHSLSAGRNKRP", "chain 2": "CGFHLKGADGISPPLTYRSWHIEGGQALQFPLETALYQASGRVDDAAGAQMTLRIDSVSQNKETYTVTRAAVINEYLLILTVEAQVLKRGEPVGKPMTVSVRRILDYADNEILGKQEEEETLWAEMRQDVAEQIVRRLTFLKAE", "notes": "LptD of N. gonorrhoeae, wild-type full length, UniProt Q5F651; LptE of N. gonorrhoeae, UniProt Q5F9V6; it is put on LptE here; Monomeric and dimeric SEC peaks were kept apart; the monomer was used for the complexes with PMbs; also called LptDE transporter; source: E. coli SF100, pBAD22A, purified from the outer-membrane fraction (LDAO, NiNTA, exchange to LMNG, SEC); also on E. coli SF100 cells …"}, "B3": {"name": "N. gonorrhoeae LptD (NgLptD), as the chain of the purified NgLptDE complex (natural protein, UniProt Q5F651 24-801, looked up)", "chain": "B2 chain 1", "notes": "LptD of N. gonorrhoeae, wild-type full length, UniProt Q5F651; The LptD chain of m1; source: E. coli SF100, co-expressed with LptE, purified as the NgLptDE complex (NiNTA, SEC, LMNG)"}},
  "key": {"[1]": {"target": "T1, N. gonorrhoeae LptD (1-801)-3C-His10 and LptE (1-159)-AVI complex, biotinylated (Neisseria gonorrhoeae ATCC 700825 / FA …, UniProt Q5F651;Q5F9V6, biotin on the AVI tag (in vitro, BirA))", "T1 construct": "signal peptide in the construct; LptD of N. gonorrhoeae (Zopf) Trevisan (ATCC 700825), residues 1-801; LptE of N. gonorrhoeae (Zopf) Trevisan (ATCC 700825), residues 1-159; Used for sybody generation and GCI; also called biotinylated NgLptDE; Biotinylated protein; source: E. coli SF100, purified as the NgLptDE complex, biotinylated in vitro with BirA, second SEC; monomeric peak; not shown: AVI, …", "assay": "grating-coupled interferometry (GCI); biotinylated NgLptDE immobilised on a 4PCP-S (streptavidin) chip at 600-700 pg/mm2; 20 °C; Tris 25 mM pH 7.5, NaCl 300 mM, DDM 0.1%; 8 concentrations (2-fold dilutions) in duplicate; 1:1 model", "details": "both partners purified"}, "[2]": {"target": "the molecule itself", "assay": "cryo-EM structure; subset of 80,140 dimeric particles of the NgLptDE-PMb51-PMb21 sample; map at 5.27 Å; pseudo-2-fold symmetry"}},
  "data": [
    {"binder": "B1", "values": [
      {"measurement": "binding result", "setting": "[1]", "result": "binds"}
    ]},
    {"binder": "B2", "values": [
      {"measurement": "stoichiometry N", "setting": "[2]", "result": 2}
    ]},
    {"binder": "B3", "values": [
      {"measurement": "binding result", "setting": "[2]", "result": "binds"}
    ]}
  ]
}
